Reference: patent US6489128
“And” between values parts separate entries of the source, which are not always exact repeats. Equal entries are not always repeated.

Target: trypsin
Assay: cell-based or functional assay

For “inter-alpha trypsin inhibitor (ITI), native complex of light chain and heavy chain, affinity purified from human serum (from UniProt P19823 55-702)”, the inhibition of trypsin hydrolysis of P-toluenesulphonyl-L-arginine methyl ester (TAME) was 5 µg and 10 µg.
